Here are results for one substance from patent US20170014486A1.

The target of this test is natriuretic polypeptide receptor A (Npra), mouse (mouse) (UniProt P18293). Briefly: cell-based or functional assay.
Chain of UniProt P18293 (P18293 29-1057 limits assumed): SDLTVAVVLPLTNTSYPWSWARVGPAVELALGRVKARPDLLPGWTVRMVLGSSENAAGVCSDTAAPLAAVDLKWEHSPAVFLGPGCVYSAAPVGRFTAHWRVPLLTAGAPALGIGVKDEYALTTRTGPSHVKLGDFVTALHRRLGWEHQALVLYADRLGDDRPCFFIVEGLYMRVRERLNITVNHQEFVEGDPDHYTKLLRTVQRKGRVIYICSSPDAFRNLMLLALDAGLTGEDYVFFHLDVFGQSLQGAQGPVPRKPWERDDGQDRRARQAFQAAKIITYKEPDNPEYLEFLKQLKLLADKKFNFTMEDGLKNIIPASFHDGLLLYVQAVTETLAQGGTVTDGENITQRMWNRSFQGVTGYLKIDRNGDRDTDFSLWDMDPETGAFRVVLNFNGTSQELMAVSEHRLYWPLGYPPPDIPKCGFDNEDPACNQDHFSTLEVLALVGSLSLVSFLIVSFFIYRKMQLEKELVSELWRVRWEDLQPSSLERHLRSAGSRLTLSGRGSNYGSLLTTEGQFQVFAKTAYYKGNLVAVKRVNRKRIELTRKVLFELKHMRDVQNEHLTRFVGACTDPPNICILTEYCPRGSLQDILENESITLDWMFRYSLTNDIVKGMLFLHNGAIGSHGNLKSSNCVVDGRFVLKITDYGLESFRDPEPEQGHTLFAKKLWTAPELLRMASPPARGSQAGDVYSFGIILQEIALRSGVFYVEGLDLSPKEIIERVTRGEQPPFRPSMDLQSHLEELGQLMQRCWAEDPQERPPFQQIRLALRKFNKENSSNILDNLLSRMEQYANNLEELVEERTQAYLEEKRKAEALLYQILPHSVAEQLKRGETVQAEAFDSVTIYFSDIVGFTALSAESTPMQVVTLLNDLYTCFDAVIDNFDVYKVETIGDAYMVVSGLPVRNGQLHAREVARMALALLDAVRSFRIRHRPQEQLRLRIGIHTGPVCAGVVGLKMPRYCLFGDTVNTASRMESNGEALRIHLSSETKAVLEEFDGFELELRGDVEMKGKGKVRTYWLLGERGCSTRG

In the case of Nppb-saporin conjugate, the Npra-positive spinal cord neurons eliminated after intrathecal injection (ISH cell counts) worked out at 70%.
